Here are results for twelve molecules from patent US11034762 (CENTIVAX, dated 2021).

Test [1] has as its target SARS-CoV-2 Receptor Binding Domain (RBD) protein (SARS-CoV-2, UniProt P0DTC2 319-541).
Test [2] deals with T1, SARS-CoV-1 Receptor Binding Domain (RBD) protein (SARS-CoV-1, UniProt P59594 306-527).
T1 construct: also called SARS1
In words: SPR; clone listed as COV2 only at the 21st table, row 24, column 3.

Test [3] concerns the target T2, MERS Receptor Binding Domain (RBD) protein (MERS virus, UniProt K9N5Q8 367-606).
T2 construct: also called Middle East Respiratory Syndrome (MERS) virus
T2 sequence: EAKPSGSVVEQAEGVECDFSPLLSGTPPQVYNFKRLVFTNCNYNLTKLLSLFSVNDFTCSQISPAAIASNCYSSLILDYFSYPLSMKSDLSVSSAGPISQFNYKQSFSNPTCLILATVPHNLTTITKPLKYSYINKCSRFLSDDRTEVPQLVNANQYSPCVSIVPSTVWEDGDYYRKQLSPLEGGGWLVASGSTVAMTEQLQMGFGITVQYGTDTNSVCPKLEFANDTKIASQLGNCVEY
The description is as above.

In test [4] the target is T1, SARS-CoV-1 Receptor Binding Domain …. The test is described as follows: SPR; clone listed as COV2 only at the 21st table, row 22, column 3. For orientation: Surface plasmon resonance follows binding to a sensor surface in real time, without labels.
The target in test [5] is T2, MERS Receptor Binding Domain (RBD) …. Described as above.
In test [6] the target is T1, SARS-CoV-1 Receptor Binding Domain …. In words: SPR; clone listed as COV2 only at the 21st table, row 13, column 3.
In test [7] the target is T2, MERS Receptor Binding Domain (RBD) …. The description is as above.
For test [8], the target named is T1, SARS-CoV-1 Receptor Binding Domain …. The test is described as follows: SPR; clone listed as COV2 only at the 21st table, row 4, column 3.
For test [9], the target named is T2, MERS Receptor Binding Domain (RBD) …. Described as above.
Test [10] addresses T1, SARS-CoV-1 Receptor Binding Domain …. In words: SPR; clone listed as COV2 only at the 21st table, row 15, column 3.
Test [11] has as its target T2, MERS Receptor Binding Domain (RBD) …. The test is described as above.
The target of test [12] is T1, SARS-CoV-1 Receptor Binding Domain …. The test is described as follows: SPR; clone listed as COV2 only at the 21st table, row 19, column 3.
The target in test [13] is T2, MERS Receptor Binding Domain (RBD) …. The description is as above.
Test [14] has as its target T1, SARS-CoV-1 Receptor Binding Domain …. In words: SPR; clone listed as COV2 only at the 21st table, row 14, column 3.
The target in test [15] is T2, MERS Receptor Binding Domain (RBD) …. The description is as above.
Test [16] deals with T1, SARS-CoV-1 Receptor Binding Domain …. In words: SPR; clone listed as COV2 only at the 21st table, row 17, column 3.
The target of test [17] is T2, MERS Receptor Binding Domain (RBD) …. The description is as above.
Test [18] concerns the target T1, SARS-CoV-1 Receptor Binding Domain …. The test is described as follows: SPR; clone listed as COV2 only at the 21st table, row 16, column 3.
In test [19] the target is T2, MERS Receptor Binding Domain (RBD) …. The description is as above.
The target in test [20] is T1, SARS-CoV-1 Receptor Binding Domain …. The test is described as follows: SPR; clone listed as COV2 only at the 21st table, row 21, column 3.
In test [21] the target is T2, MERS Receptor Binding Domain (RBD) …. The description is as above.
Test [22] deals with T1, SARS-CoV-1 Receptor Binding Domain …. The test is described as follows: SPR; clone listed as COV2 only at the 21st table, row 12, column 3.
Test [23] deals with T2, MERS Receptor Binding Domain (RBD) …. Described as above.
In test [24] the target is T1, SARS-CoV-1 Receptor Binding Domain …. The test is described as follows: SPR; clone listed as COV2 only at the 21st table, row 23, column 3.
In test [25] the target is T2, MERS Receptor Binding Domain (RBD) …. The description is as above.

Positions count from the first letter of the chain named.

B1: COVID19_P09_H08 (scFv, V domains shown)
VH: QVQLVQSGAEVKKPGSSVKVSCKASGGTFSSYAISWVRQAPGQGLEWMGGIIPIFGTTNYAQKFQGRVTITADESTSTAYMELSSLRSEDTAVYYCAGEWGISTPMDVWGQGTLVTVSS
VL: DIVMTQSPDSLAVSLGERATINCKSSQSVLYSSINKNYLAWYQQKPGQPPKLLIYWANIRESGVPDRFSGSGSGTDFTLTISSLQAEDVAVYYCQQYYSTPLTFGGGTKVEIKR
In the case of B1, in [1], the dissociation constant (Kd) (commonly the free concentration of one partner at which half of the binding sites on the other are occupied at equilibrium, for simple one-to-one binding) stood at 3.25 nM; the koff – broadly, the first-order rate constant of dissociation – turned out to be 0.00039 s⁻¹; the kon (in general, the second-order rate constant of association) turned out to be 120000 M⁻¹ s⁻¹. The binding result in test [2] is “no binding (tested: up to 300 nM)”. Moreover, the binding result in test [3] was “no binding (tested: up to 300 nM)”.

B2: COVID19_P22_E12 (scFv, V domains shown)
VH: B1 VH with S35N, I54V, F55L, G56H, T58V, N59D, K63R, F64L
VL: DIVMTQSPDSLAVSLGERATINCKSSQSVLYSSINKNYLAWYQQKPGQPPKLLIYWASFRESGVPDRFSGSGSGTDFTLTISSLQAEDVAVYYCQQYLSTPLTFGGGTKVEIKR
In test [1], B2 had a Kd of 44 nM, a koff of 0.0089 s⁻¹ and an association rate constant (kon) of 200000 M⁻¹ s⁻¹. Besides, in [4], the binding result is “no binding (tested: up to 300 nM)”. Also, the binding result in test [5] was “no binding (tested: up to 300 nM)”.

B3: COVID19_P21_E12 (scFv, V domains shown)
VH: B1 VH with S30I, I54T, F55L, T58Y, E99S
VL: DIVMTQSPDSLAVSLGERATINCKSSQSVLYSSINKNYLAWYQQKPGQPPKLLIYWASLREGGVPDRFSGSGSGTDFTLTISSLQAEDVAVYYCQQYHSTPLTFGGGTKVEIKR
notes: also called COVID19_P21_El2
In test [1], B3 displayed a Kd of 8.82 nM, a koff of 0.000586 s⁻¹ and a kon of 66500 M⁻¹ s⁻¹. The binding result in [6] was “no binding (tested: up to 300 nM)”. For the same molecule, in test [7], the binding result is on record as “no binding (tested: up to 300 nM)”.

B4: COVID19_P22_F04 (scFv, V domains shown)
VH: QVQLVQSGAEVKKPGSSVKVSCKASGGGFITYWIGWVRQAPGQGLEWMGIIYPGDGEARYSQKFQGRVTITADESTSTAYMELSSLRSEDTAVYYCAGGSGISTPMDVWGQGTLVTVSS
VL: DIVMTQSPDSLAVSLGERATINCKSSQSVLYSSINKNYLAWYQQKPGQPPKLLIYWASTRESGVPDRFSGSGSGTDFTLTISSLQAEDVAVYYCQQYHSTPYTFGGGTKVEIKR
Take B4: in test [1], binding was characterised by a dissociation constant (Kd) of 30.6 nM, the koff is 0.0085 s⁻¹ and the kon was found to be 280000 M⁻¹ s⁻¹. Besides, the binding result in test [8] was “no binding (tested: up to 300 nM)”. Also, the binding result in [9] is “no binding (tested: up to 300 nM)”.

B5: COVID19_P21_A08 (scFv, V domains shown)
VH: B4 VH with G28T, I50W, Y52N, G54N, D55S, E57G, A58T, R59N, S61A
VL: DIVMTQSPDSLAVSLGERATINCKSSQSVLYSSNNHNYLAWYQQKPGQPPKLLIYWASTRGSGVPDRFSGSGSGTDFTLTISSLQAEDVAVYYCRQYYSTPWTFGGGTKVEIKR
In test [1], B5 showed a dissociation constant (Kd) of 13.3 nM, a koff of 0.000496 s⁻¹ and a kon of 37300 M⁻¹ s⁻¹. For the same molecule, the binding result in test [10] was “no binding (tested: up to 300 nM)”. Besides, the binding result in [11] is on record as “no binding (tested: up to 300 nM)”.

B6: COVID19_P09_E11 (scFv, V domains shown)
VH: B4 VH with G28T, I30S, T31N, Y32H, W33A, G35S, P41Y, E57T, A58T
VL: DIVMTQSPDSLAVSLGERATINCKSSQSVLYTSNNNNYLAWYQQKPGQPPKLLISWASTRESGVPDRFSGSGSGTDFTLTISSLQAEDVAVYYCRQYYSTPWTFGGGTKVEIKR
As to B6, in test [1], the affinity, expressed as Kd, was 0.49 nM; the koff was found to be 0.000123 s⁻¹; the kon came out at 249000 M⁻¹ s⁻¹. Moreover, in test [12], the binding result was “no binding (tested: up to 300 nM)”. For the same molecule, in test [13], the binding result is given as “no binding (tested: up to 300 nM)”.

B7: COVID19_P10_C05 (scFv, V domains shown)
VH: B4 VH with G28T, G99S, S100G
VL: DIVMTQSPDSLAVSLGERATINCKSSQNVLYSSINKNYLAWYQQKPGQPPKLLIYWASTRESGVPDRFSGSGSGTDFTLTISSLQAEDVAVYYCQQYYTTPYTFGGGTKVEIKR
On to B7, for which, in test [1], the Kd turned out to be 33.8 nM, the koff worked out at 0.0156 s⁻¹ and the kon amounted to 462000 M⁻¹ s⁻¹. For the same molecule, the binding result in test [14] was “no binding (tested: up to 300 nM)”. Also, in test [15], the binding result was “no binding (tested: up to 300 nM)”.

B8: COVID19_P10_D08 (scFv, V domains shown)
VH: QVQLVQSGAEVKKPGSSVKVSCKASGGTFNSHAISWVRQAPGQGLEWMGWINPNSGATNYAQKFQGRVTITADESTSTAYMELSSLRSEDTAVYYCAGGSGISTPVGVWGQGTLVTVSS
VL: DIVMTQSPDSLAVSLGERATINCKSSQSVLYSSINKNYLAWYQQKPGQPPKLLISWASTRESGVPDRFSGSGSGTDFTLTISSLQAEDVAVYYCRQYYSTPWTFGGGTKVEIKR
Regarding B8, in test [1], binding was put at a Kd of 15.2 nM, the koff is 0.00107 s⁻¹ and the kon was 70700 M⁻¹ s⁻¹. The binding result in test [16] is “no binding (tested: up to 300 nM)”. In addition, the binding result in [17] is “no binding (tested: up to 300 nM)”.

B9: COVID19_P09_H09 (scFv, V domains shown)
VH: B4 VH with G28T, G35Y, Q65Y, G99S, S100G
VL: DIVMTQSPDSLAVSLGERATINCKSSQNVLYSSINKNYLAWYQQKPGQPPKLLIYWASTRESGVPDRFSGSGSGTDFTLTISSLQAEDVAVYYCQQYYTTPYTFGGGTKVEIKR
In [1], B9 displayed a Kd of 35.2 nM, a koff of 0.0154 s⁻¹ and a kon of 438000 M⁻¹ s⁻¹. The binding result in test [18] is given as “no binding (tested: up to 300 nM)”. For the same molecule, the binding result in test [19] was “no binding (tested: up to 300 nM)”.

B10: COVID19_P10_G03 (scFv, V domains shown)
VH: B8 VH with N30S, S31N, H32S, A33S, S35N, W50R, A57G, V106M, G107D
VL: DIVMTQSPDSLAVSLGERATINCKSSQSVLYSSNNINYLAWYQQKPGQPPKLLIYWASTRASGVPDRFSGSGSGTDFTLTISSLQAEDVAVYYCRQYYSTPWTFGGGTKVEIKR
In [1], B10 returned a Kd of 40.4 nM, a koff of 0.00177 s⁻¹ and a kon of 43800 M⁻¹ s⁻¹. In test [20], the binding result is “no binding (tested: up to 300 nM)”. Besides, the binding result in test [21] is recorded as “no binding (tested: up to 300 nM)”.

B11: COVID19_P22_H10 (scFv, V domains shown)
VH: B4 VH with I30S, M48V, I50W, Y52N, G54N, D55S, E57A, A58T, R59K, S61A
VL: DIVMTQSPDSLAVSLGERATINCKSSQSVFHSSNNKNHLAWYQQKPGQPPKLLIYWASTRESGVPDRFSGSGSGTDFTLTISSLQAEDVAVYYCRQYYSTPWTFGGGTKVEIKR
On to B11, for which, in test [1], the Kd turned out to be 7.59 nM, the koff amounted to 0.00057 s⁻¹ and the kon stood at 75000 M⁻¹ s⁻¹. Moreover, the binding result in test [22] is “no binding (tested: up to 300 nM)”. Also, the binding result in test [23] is “no binding (tested: up to 300 nM)”.

B12: COVID19_P22_F07 (scFv, V domains shown)
VH: QVQLVQSGAEVKKPGSSVKVSCKASGGTFSSYAISWVRQAPGQGLEWMGGIIPIFGSTASYAQKFQGRVTITADESTSTAYMELSSLRSEDTAVYYCAGEWGISTPMDVWGQGTLVTVSS
VL: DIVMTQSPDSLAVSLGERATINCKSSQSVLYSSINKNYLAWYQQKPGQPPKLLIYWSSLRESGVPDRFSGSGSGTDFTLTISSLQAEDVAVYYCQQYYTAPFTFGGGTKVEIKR
For the molecule B12, in [1], the Kd came to 6.58 nM, the koff was found to be 0.00041 s⁻¹ and the kon was 63000 M⁻¹ s⁻¹. The binding result in test [24] is recorded as “no binding (tested: up to 300 nM)”. Further, the binding result in test [25] is listed as “no binding (tested: up to 300 nM)”.
